Results as given in US20260152527A1 (SIGHTSTREAM BIOTHERAPEUTICS, published 2026).
Starred links: 1 amine or outer side, 2 acyl side, 3 side chain; linkers in the order of their positions; H or OH if unused. Positions of bridges follow the written chain, without caps; N, C: chain ends. Non-standard residues stand in square brackets, D forms with d. *: point of attachment. Hgln = homoglutamine, NC(=O)CCC[C@H](N[*:1])C(=O)[*:2]; Trp(1-Me) = Cn1cc(C[C@H](N)C(=O)O)c2ccccc21; Benzoyl(3,5-(OH)2) = O=C(c1cc(O)cc(O)c1)*; Lys(N3) = [N-]=[N+]=NCCCC[C@H](N)C(=O)O; Orn(N3) = [N-]=[N+]=NCCC[C@H](N)C(=O)O; dPhe(4-F) = N[C@H](Cc1ccc(F)cc1)C(=O)O; Acetyl(4-pyridyl) = O=C(Cc1ccncc1)*; R8 = C=CCCCCCC[C@@](C)(N)C(=O)O; S5 = C=CCCC[C@](C)(N)C(=O)O; Hpra = C#CCC[C@H](N)C(=O)O; dPra = C#CC[C@@H](N)C(=O)O; Nle = CCCC[C@H](N)C(=O)O; Pra = C#CC[C@H](N)C(=O)O

Columns and labels:
Assay in all cases: cell-based or functional assay
[1] = target: T1, human recombinant MC4R (CHO-K1/Gα15 stable cell line, GenScript) (human, UniProt P32245 1-332)
[2] = target: T2, human recombinant MC5R (CHO-K1/Ga15 stable cell line, GenScript) (human, UniProt P33032 1-325)
[3] = target: T3, human recombinant MC1R (CHO-K1 stable cell line, GenScript) (human, UniProt Q01726 1-317)
[4] = target: human recombinant MC3R (CHO-K1/Gα15 stable cell line, GenScript) (human, UniProt P41968 1-323)
[5] = target: T1, human recombinant MC4R (CHO-K1/Gα15 …); remark: listed apart in the source
[6] = target: T2, human recombinant MC5R (CHO-K1/Ga15 …); remark: listed apart in the source
[7] = target: T3, human recombinant MC1R (CHO-K1 stable …); remark: listed apart in the source

T1 sequence (P32245 whole entry): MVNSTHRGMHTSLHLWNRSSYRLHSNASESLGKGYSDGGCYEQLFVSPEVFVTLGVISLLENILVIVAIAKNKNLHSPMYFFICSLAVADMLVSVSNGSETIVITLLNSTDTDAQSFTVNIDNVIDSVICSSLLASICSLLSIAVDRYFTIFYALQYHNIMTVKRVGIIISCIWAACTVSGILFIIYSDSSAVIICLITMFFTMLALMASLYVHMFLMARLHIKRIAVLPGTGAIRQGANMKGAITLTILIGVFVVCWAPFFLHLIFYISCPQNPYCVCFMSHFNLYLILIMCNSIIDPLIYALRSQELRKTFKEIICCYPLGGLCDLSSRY
Chain of human recombinant MC3R (CHO-K1/Gα15 stable cell line, GenScript) (P41968 whole entry): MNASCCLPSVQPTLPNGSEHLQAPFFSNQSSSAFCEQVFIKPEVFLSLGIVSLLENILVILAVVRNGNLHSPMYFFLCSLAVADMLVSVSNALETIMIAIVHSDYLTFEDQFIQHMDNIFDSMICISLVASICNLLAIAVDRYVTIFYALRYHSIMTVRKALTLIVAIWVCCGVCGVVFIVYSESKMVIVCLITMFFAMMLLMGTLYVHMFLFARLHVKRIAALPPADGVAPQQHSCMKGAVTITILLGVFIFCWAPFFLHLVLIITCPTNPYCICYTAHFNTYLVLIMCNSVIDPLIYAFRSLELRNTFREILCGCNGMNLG
T3 sequence (Q01726 whole entry): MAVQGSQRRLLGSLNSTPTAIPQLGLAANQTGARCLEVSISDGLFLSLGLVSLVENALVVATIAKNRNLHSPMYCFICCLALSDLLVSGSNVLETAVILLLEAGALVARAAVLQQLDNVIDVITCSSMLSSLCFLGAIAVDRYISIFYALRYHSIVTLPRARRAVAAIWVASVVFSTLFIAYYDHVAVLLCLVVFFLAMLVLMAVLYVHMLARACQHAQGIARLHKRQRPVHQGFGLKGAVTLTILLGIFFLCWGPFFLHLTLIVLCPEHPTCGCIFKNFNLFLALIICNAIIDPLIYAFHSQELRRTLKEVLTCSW
T2 sequence (P33032 whole entry): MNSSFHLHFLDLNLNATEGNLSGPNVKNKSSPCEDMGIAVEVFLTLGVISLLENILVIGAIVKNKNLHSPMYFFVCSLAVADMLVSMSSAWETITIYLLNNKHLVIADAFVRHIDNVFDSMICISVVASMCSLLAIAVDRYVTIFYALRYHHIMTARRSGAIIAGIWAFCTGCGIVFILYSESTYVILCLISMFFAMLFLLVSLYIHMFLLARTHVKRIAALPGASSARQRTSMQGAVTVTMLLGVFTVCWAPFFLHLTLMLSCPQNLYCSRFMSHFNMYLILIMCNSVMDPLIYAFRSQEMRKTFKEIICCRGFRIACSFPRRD

B1: KR-015 (peptide)
peptide: Ac-[R8]EHFRWG[S5]-NH2
modifications: staple 1-8
SMILES: CC(=O)N[C@]1(C)CCCCCCC=CCCC[C@@](C)(C(N)=O)NC(=O)CNC(=O)[C@H](Cc2c[nH]c3ccccc23)NC(=O)[C@H](CCCNC(=N)N)NC(=O)[C@H](Cc2ccccc2)NC(=O)[C@H](Cc2c[nH]cn2)NC(=O)[C@H](CCC(=O)O)NC1=O
B1 was tested, and the “MC4R IC50” value [1] was 485 nM, the “MC5R IC50” value [2] was greater than 10000 nM and the “MC1R IC50” value [3] was 25.8 nM. For the same binder, the “MC3R IC50” value [4] was 3000 nM.

In the case of Ac-[Nle][Lys(N3)]HFRW[Pra]-NH2 (triazole 2-7) [KR-008], the “MC4R IC50” value [1] is reported as 74.5 nM, the “MC5R IC50” value [2] is reported as greater than 10000 nM and the “MC1R IC50” value [3] is reported as 0.4 nM. For the same binder, the “MC3R IC50” value [4] was 1110 nM.

B2: KR-060 (peptide)
peptide: Ac-[Nle][Lys(N3)]H[dF]R[Trp(1-Me)][Pra]K-NH2
modifications: triazole 2-7; not fully specified; printed as Ac-Nle-[Lys(N3)-His-DPhe-Arg-Trp(Me)-Pra]-Lys-NH2
In the case of B2, the “MC4R IC50” value [1] is reported as 67.6 nM, the “MC5R IC50” value [2] is reported as 319 nM and the “MC1R IC50” value [3] is reported as 0.79 nM. For the same binder, the “MC3R IC50” value [4] was 260 nM.

For Ac-SMEHFRWGKPV-NH2 [KR-002], the “MC4R IC50” value [1] was 34.9 nM, the “MC5R IC50” value [2] was 243 nM and the “MC1R IC50” value [3] was 0.44 nM. For the same binder, the “MC3R IC50” value [4] was 176 nM.

B3: KR-073 (peptide)
peptide: {Benzoyl(3,5-(OH)2)}-[Nle][Lys(N3)]H[dF]RW[Pra]-NH2
modifications: triazole 2-7; not fully specified; printed as HyBA-Nle-[Lys(N3)-His-DPhe-Arg-Trp-Pra]-NH2
For B3, the “MC4R IC50” value [1] was 13.9 nM, the “MC5R IC50” value [2] was 134 nM and the “MC1R IC50” value [3] was 0.0041 nM. The “EC50(nM)-MC4R” value [5] was 13.9 nM, the “EC50(nM)-MC5R” value [6] was 134 nM and the “EC50(nM)-MC1R” value [7] was 0.0041 nM.

For Ac-EHFRWGKP-NH2 [KR-007], the “MC4R IC50” value [1] was 16.4 nM, the “MC5R IC50” value [2] was greater than 10000 nM and the “MC1R IC50” value [3] was 1.99 nM. The “MC3R IC50” value [4] was 1400 nM.

B4: KR-057 (peptide)
peptide: Ac-[Nle][Lys(N3)]H[dF]RW[Pra][Hgln]-NH2
modifications: triazole 2-7; not fully specified; printed as Ac-Nle-[Lys(N3)-His-DPhe-Arg-Trp-Pra]-Hgln-NH2
For B4, the “MC4R IC50” value [1] was 33.5 nM, the “MC5R IC50” value [2] was 107 nM and the “MC1R IC50” value [3] was 0.024 nM. The “MC3R IC50” value [4] was 73.3 nM.

B5: KR-074 (peptide)
peptide: {Acetyl(4-pyridyl)}-[Nle][Lys(N3)]H[dF]RW[Pra]-NH2
modifications: triazole 2-7; not fully specified; printed as PyAA-Nle-[Lys(N3)-His-DPhe-Arg-Trp-Pra]-NH2
In the case of B5, the “MC4R IC50” value [1] is reported as 20.2 nM, the “MC5R IC50” value [2] is reported as 154 nM and the “MC1R IC50” value [3] is reported as 0.023 nM. The “MC3R IC50” value [4] was 165 nM.

B6: KR-072 (peptide)
peptide: {Benzoyl(3,5-(OH)2)}-[Nle][Lys(N3)]H[dPhe(4-F)]RW[Pra]-NH2
modifications: triazole 2-7; not fully specified; printed as HyBA-Nle-[Lys(N3)-His-Dphe(4-F)-Arg-Trp-Pra]-NH2
For B6, the “MC4R IC50” value [1] was 98.6 nM, the “MC5R IC50” value [2] was 78 nM and the “MC1R IC50” value [3] was 0.0019 nM. The “EC50(nM)-MC4R” value [5] was 98.6 nM, the “EC50(nM)-MC5R” value [6] was 78 nM and the “EC50(nM)-MC1R” value [7] was 0.0019 nM.

B7: KR-066 (peptide)
peptide: Ac-[Nle][Lys(N3)]H[dF]RW[Hpra]K-NH2
modifications: triazole 2-7; not fully specified; printed as Ac-Nle-[Lys(N3)-His-DPhe-Arg-Trp-HPra]-Lys-NH2
For B7, the “MC4R IC50” value [1] was 75.1 nM, the “MC5R IC50” value [2] was 64 nM and the “MC1R IC50” value [3] was 0.0047 nM. The “MC3R IC50” value [4] was 39.9 nM.

B8: KR-065 (peptide)
peptide: Ac-[Nle][Orn(N3)]H[dF]RW[Pra]K-NH2
modifications: triazole 2-7; not fully specified; printed as Ac-Nle-[Orn(N3)-His-DPhe-Arg-Trp-Pra]-Lys-NH2
For B8, the “MC4R IC50” value [1] was 36 nM, the “MC5R IC50” value [2] was 70.2 nM and the “MC1R IC50” value [3] was 0.027 nM. The “MC3R IC50” value [4] was 91.6 nM.

B9: KR-070 (peptide)
peptide: Ac-[Nle][Lys(N3)]H[dF]RW[dPra]K-NH2
modifications: triazole 2-7; not fully specified; printed as Ac-Nle-[Lys(N3)-His-DPhe-Arg-Trp-DPra]-Lys-NH2
With B9 the “MC4R IC50” value [1] was 84.1 nM, the “MC5R IC50” value [2] was 376 nM and the “MC1R IC50” value [3] was 11.8 nM. For the same binder, the “MC3R IC50” value [4] was 1630 nM.
